The experiment addresses T1, recombinant mouse Wnt3a protein (mouse, UniProt P27467 19-352).
T1 construct: recombinant mouse Wnt3a (R&D Systems); the bought protein is probably the mature secreted form (surmise); also called recombinant Wnt3a protein; source: bought: R&D Systems
Nature of the experiment: ELISA; competitive ELISA, third round of a screen of a human scFv phage display library: phage clones against recombinant mouse Wnt3a for binding to purified hRYKWD.Fc. The note with it: both partners purified. A general note: An ELISA detects its analyte on a solid surface through an enzyme-linked reagent.

T1 sequence (P27467 19-352): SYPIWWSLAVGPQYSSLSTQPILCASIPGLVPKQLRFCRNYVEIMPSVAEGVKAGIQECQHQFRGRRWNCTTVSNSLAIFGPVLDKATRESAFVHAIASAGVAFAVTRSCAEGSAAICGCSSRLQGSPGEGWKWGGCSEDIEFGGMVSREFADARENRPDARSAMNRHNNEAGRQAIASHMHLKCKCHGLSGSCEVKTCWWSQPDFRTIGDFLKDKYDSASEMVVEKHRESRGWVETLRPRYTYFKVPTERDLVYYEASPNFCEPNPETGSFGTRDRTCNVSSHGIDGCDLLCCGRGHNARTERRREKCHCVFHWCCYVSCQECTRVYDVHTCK

B1: hRYKWD.Fc (WIF domain of human RYK fused to the Fc.FLAG region of human IgG1) (Fc fusion, UniProt P34925 66-194, looked up)
chain: LYLSEDEVRRLIGLDAELYYVRNDLISHYALSFSLLVPSETNFLHFTWHAKSKVEYKLGFQVDNVLAMDMPQVNISVQGEVPRTLSVFRVELSCTGKVDSEVMILMQLNLTVNSSKNFTVLNFKRRKMC
notes: WIF domain of human RYK, lacking the metalloprotease cleavage site; also called hRYKWD.Fc.FLAG; human RYK WIF domain-only fusion protein
As to B1, the binding result was “binds”.

(Values after paper PMC3776778, “A Fully Human Inhibitory Monoclonal Antibody to the Wnt Receptor RYK” (PLoS ONE, 2013).)
